From doi:10.1101/2022.10.06.511153 (bioRxiv, 2022)

Legend:
[1] = target: MksE (Corynebacterium glutamicum) (UniProt Q8NLY1); experiment: BLI
[2] = target: MksB (Corynebacterium glutamicum) (UniProt Q8NLY2); experiment: BLI
[3] = target: the molecule itself; experiment: crystal structure

“MksF (from UniProt Q8NLY0 1-495) (natural protein)” gave a Kd [1] of 2.17 µM and a Kd [2] of 4.94 µM.

B1: MksG (6xHis-SUMO construct for crystallization) (natural protein, Corynebacterium glutamicum)
chain: MPLFIDDALHRSKKYFHAHLSELLLGEFAGLSLPLHPPTAAKAAADIDATREFIRQWEGRDDVEYAIRNWSPVGLGKTEVPVRLTLNTTEELVVFAQVEDEWSSLHERFSQLSGFTAEVVAKHVSLWRSLSNDDLSKAVLVVDWFLKHPNSGLLKRAVAVEGVHTKWLENHRVLIETLVADKRGEPGRADLGLGDAEARVRLRFHSVDAPAGLTDIEVPLSNLCELQEPQVILMVENLDSFLALPTWPGVTIAWGAGYRAVDIVRGPYFSNGRLLYWGDLDLDGFKILDGVRSHVPHTESVLMNSETVSRWRYLGVADREFKAESFDNLHDFESDALDLLITDGELRIEQERIRLDVAVEEIEKVIRG
With B1 the “stoichiometry N” value [3] was 2.
